# In the RNAGym collection of RNA variant scans (doi:10.7554/elife.80360):
# B1: Twister Ribozyme (parent)
# chain: AACACUGCCAAUGCCGGUCCCAAGCCCGGAUAAAAGUGGAGGGGGCGG
# Variants of: B1
# Assay: self-cleavage, relative activity (ratio to wild type); higher = more cleavage; co-transcriptional
row,Variant,self-cleavage
1,A11C A23C,0.0766
2,U12A G29C,0.949
3,A11G G48U,0.942
4,A11G U37A,0.587
5,U12G A35G,0.815
6,U12C U31C,0.938
7,A11C C14U,0.909
8,A11C C14A,0.69
9,A11U A33U,1.03
10,U12G A33G,0.809
11,U12G A33U,0.868
12,U12C G47C,0.497
13,U12C G47U,0.944
14,A11G A33U,0.955
15,A10U G42U,0.447
16,A11U A32C,0.926
17,U12G C14G,0.124
18,U12G C14U,0.756
19,U12G C14A,0.726
20,U12G G16U,0.937
21,U12G G16A,0.864
22,U12G G28U,0.464
23,U12G G28A,0.799
24,U12C G44A,0.852

row,Variant,self-cleavage
1,U12C G44U,0.902
2,U12G G17U,0.239
3,U12C C25G,0.439
4,U12A U37G,0.925
5,A11G G16U,0.875
6,A11G G16C,0.406
7,A11U G39A,0.63
8,A11C C19U,0.627
9,U12A G41A,0.696
10,U12A G41C,0.264
11,U12C G36C,0.559
12,U12C G36U,0.543
13,U12A C26G,0.446
14,A11G A30G,0.674
15,A11G A30U,0.976
16,U12A C19U,0.882
17,U12A C19G,0.614
18,U12C G28A,0.829
19,U12C G28C,0.814
20,A11G G42C,0.455
21,A11G G42U,0.411
22,A11G G42A,0.441
23,U12G A23G,0.502
24,U12G A30G,0.783

row,Variant,self-cleavage
1,U12G A30U,0.812
2,A11U A34C,0.365
3,U12C G13C,0.453
4,U12C G13A,0.772
5,U12C G13U,0.659
6,U12C A33C,0.876
7,U12C A33U,1.01
8,U12C A33G,1
9,A11C C25A,0.0918
10,A11C C25U,0.733
11,A11C C25G,0.115
12,A11U C26G,0.31
13,A11U C26A,0.674
14,U12G A22G,0.316
15,A11C G39A,0.601
16,A11C G39C,0.208
17,A11C G39U,0.214
18,A11U A23G,0.755
19,U12C G29A,0.988
20,A11G C26A,0.187
21,A11C C26U,0.137
22,U12A A33G,0.969
23,U12A A33C,1.04
24,A11U U12G,1.05

row,Variant,self-cleavage
1,A11G A32U,0.841
2,A11C G24U,0.0789
3,A11C G24A,0.0913
4,A11C G24C,0.0648
5,A10U G47A,0.946
6,A10U G47C,0.596
7,A10U G47U,1.01
8,A11G G43U,0.374
9,A11U U18C,0.617
10,A11U U18A,1
11,U12C A35C,1.08
12,U12C C20G,0.103
13,U12C G41U,0.614
14,U12C G39U,0.222
15,U12C G39A,0.609
16,U12C G39C,0.127
17,A11U C21U,0.0941
18,U12C C21G,0.0654
19,U12C C21U,0.0795
20,A11C G13U,0.0589
21,A11C G13C,0.164
22,A11C G13A,0.188
23,A11C U37G,0.742
24,A11C U37C,0.808

row,Variant,self-cleavage
1,A11C U37A,0.886
2,U12C C26A,0.658
3,U12C C26U,0.333
4,A11C G42A,0.248
5,A11C G42U,0.136
6,A11U C14A,0.915
7,A11U C14U,1.13
8,A11C U31A,0.502
9,A11C U31G,0.917
10,U12A U18G,0.106
11,A11G G39U,0.224
12,A11G G13A,0.745
13,A11G G13C,0.345
14,A11G G29C,0.679
15,A10U U31G,0.948
16,A10U G28U,0.929
17,A11G C25U,0.737
18,A11G C25A,0.13
19,U12A C25U,0.947
20,U12A C25A,0.15
21,U12G G24A,0.177
22,U12G G24C,0.0924
23,A11C G44U,0.791
24,A11U G43A,0.336

row,Variant,self-cleavage
1,A11U G43U,0.606
2,A10U G44U,0.971
3,A10U G44C,0.937
4,A10U G45U,0.871
5,A10U G45A,0.999
6,A11G C46A,0.808
7,A11G C46G,0.938
8,U12A C46G,1.12
9,U12A C46A,1.09
10,A11U C15U,1
11,U12G C46G,0.757
12,U12A A35G,1.06
13,U12A A35C,1.09
14,U12G C19A,0.601
15,U12G C19G,0.686
16,A11C,0.906
17,A11G,0.932
18,A11U,1.04
19,U12G C25G,0.486
20,U12C U18A,0.474
21,U12C U18C,0.564
22,U12G C27G,0.136
23,U12G C27A,0.373
24,U12G C27U,0.496

row,Variant,self-cleavage
1,U12A G16U,1.09
2,U12A G16A,1.03
3,A11U A30G,1.11
4,A11U A30U,1.01
5,A11C G43A,0.167
6,U12G C21G,0.0698
7,U12G C21U,0.0878
8,U12G C21A,0.0849
9,U12A G24A,0.103
10,A11U G44U,1.07
11,A11U G44C,0.969
12,U12C G42U,0.331
13,U12C G42C,0.486
14,U12C G42A,0.42
15,U12C A32U,0.835
16,U12C A32C,0.982
17,U12C A32G,1.24
18,U12A C21A,0.152
19,A11C G48C,1.05
20,A11C G48A,0.998
21,A11C G48U,1.06
22,A11C G16A,0.234
23,A11C G16U,0.0992
